Experimental data published in doi:10.1101/2022.01.21.477187.

Target: GMPCPP-stabilised rhodamine microtubules
Experiment: single-molecule TIRF motility assay

landing rate (events μm^−1 min^−1)	processive landing rate (events μm^−1 min^−1)	residency time on the microtubule [s]	Substance
0.147	0.009	37.1	full-length human CENP-E-mNeonGreen, Q02224 1-2701
–	–	6.36	CENP-E483 with a GCN4 leucine zipper domain fused to its C terminus (from UniProt Q02224 1-483)
